Test results reported in publication PMC11077057, “Identifying human pre-mRNA cleavage and polyadenylation factors by genome-wide CRISPR screens using a dual fluorescence readthrough reporter”.

B1: GEMIN7 3' UTR probe (ssRNA)
RNA: AUUUGAUUUCAUUUUGGGGCGGGCGGUGGCUCGUGCUGGGUCACGUGGUCGUGCCAAGCGCUCCUCCUGUUGCCCCACCUGUGGUUGCUGUGGACUGCAC
B2: GEMIN7 exon 2 probe (ssRNA)
RNA: GCGGCUUCUCUGUUGACAACUCAGCUGGUUCCACACCCUGGCAAUUGUGAAGAGUUGGCCAAAUGUUUGUCCACUGAGCUGAUCUCCUCUCUGGAGCACC

Key:
Assay in all cases: EMSA; 0-1 ug protein; heparin 200 ug/ml added after binding; EMSA: 40 mM Tris pH 8.0, 30 mM KCl, 1 mM MgCl2, 0.01% NP-40, 1 mM DTT, 100 ng/ml yeast tRNA, 20 ul, 30 C 30-60 min, then on ice with heparin 200 ug/ml; 4-6% native PAGE 0.5x TBE, cold room
RPRD1B full length = target: T1, RPRD1B full length (human, UniProt Q9NQG5 2-326); details: protein: recombinant; (pET28GST-LIC; 6xHis stated); chain copies: 2
T1 sequence: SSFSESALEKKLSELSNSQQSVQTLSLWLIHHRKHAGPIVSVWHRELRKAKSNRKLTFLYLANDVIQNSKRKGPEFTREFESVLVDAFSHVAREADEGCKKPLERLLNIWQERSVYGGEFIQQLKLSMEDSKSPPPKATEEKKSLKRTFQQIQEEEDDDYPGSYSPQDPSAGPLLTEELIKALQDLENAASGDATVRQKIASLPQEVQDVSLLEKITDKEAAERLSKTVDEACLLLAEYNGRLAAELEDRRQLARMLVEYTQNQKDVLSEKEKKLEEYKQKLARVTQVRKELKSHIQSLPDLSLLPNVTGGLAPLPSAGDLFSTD

RPRD1B CID = target: T2, RPRD1B CID (human, UniProt Q9NQG5 2-135); details: protein: recombinant; (pET28GST-LIC; 6xHis stated)
T2 sequence: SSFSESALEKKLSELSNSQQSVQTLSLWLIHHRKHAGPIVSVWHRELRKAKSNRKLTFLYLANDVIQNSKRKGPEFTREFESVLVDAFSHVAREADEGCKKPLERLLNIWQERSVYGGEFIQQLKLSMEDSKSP

[1] = target: T3, RPRD1B coiled-coil domain (human, UniProt Q9NQG5 171-304); details: protein: recombinant; (pET28GST-LIC; 6xHis stated); chain copies: 2
T3 sequence: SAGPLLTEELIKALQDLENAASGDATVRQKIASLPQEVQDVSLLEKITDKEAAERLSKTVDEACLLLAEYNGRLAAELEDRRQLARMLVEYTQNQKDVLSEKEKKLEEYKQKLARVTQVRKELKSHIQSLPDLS

| Binder | binding result (RPRD1B full length) | binding result (RPRD1B CID) | binding result [1] |
| --- | --- | --- | --- |
| B1 | binds | binds | no binding |
| B2 | no binding | – | – |
